Measurements published in the supplement of paper PMC10567573.

B1: ZNF24 (parent)
chain: THTKEQILELVVLEQFVAILPKEL

Variants of: B1
Assay: protein stability index of a GFP-peptide fusion (GPS, HEK-293T) (PSI 1-6); higher = more stable
Details: c terminus: a fixed tail appended
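Note: lentivirally expressed fusions sorted by FACS into six bins by GFP to DsRed ratio, PSI derived from sequencing read proportions per bin multiplied by bin number.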

| Variant | protein stability index |
| --- | --- |
| THTKEQILELVVLEQFVYILPKEL [A18Y] | 2.59 |
| THTKEQILELVVLEQFVLILPKEL [A18L] | 2.04 |
| THTKEQILELVVLEQFVAILFKEL [P21F] | 1.92 |
| THTKEQILELVVLEQFVAILCKEL [P21C] | 3.76 |
| THTKEQILELVVLEQFVAILHKEL [P21H] | 3.6 |
| THTKEQILELVVLEQFVAILQKEL [P21Q] | 2.66 |
| THTKEQILELVVLEQFVAILNKEL [P21N] | 3.62 |
| THTKEQILELVVLEQFVAILDKEL [P21D] | 4.16 |
| THTKEQILELVVLEQFVAILVKEL [P21V] | 2.28 |
| THTKEQILELVVLEQFVAILYKEL [P21Y] | 3.02 |
| THTKEQILELVVLEQFVAILLKEL [P21L] | 2.44 |
| THTKEQILELVVLEQFVAILMKEL [P21M] | 3.76 |
| THTKEQILELVVLEQFVAILTKEL [P21T] | 2.57 |
| THTKEQILELVVLEQFVAILSKEL [P21S] | 1.42 |
| THTKEQILELVVLEQFVAILGKEL [P21G] | 2.21 |
| THTKEQILELVVLEQFVAILEKEL [P21E] | 2.23 |
| THTKEQILELVVLEQFVAILKKEL [P21K] | 3.31 |
| THTKEQILELVVLEQFVAILRKEL [P21R] | 3.28 |
| THTKEQILELVVLEQFVAILWKEL [P21W] | 3.12 |
| THTKEQILELVVLEQFVAILIKEL [P21I] | 1.92 |
| THTKEQILELVVLEQFVAILAKEL [P21A] | 3.78 |
| THTKEQILELVVLEQFVAIHPKEL [L20H] | 1.67 |
| THTKEQILELVVLEQFVAINPKEL [L20N] | 1.83 |
| THTKEQILELVVLEQFVAIRPKEL [L20R] | 2.61 |

| Variant | protein stability index |
| --- | --- |
| THTKEQILELVVLEQFVAIMPKEL [L20M] | 1.95 |
| THTKEQILELVVLEQFVAIKPKEL [L20K] | 1.63 |
| THTKEQILELVVLEQFVAISPKEL [L20S] | 2.33 |
| THTKEQILELVVLEQFVAIFPKEL [L20F] | 2.83 |
| THTKEQILELVVLEQFVAIAPKEL [L20A] | 3.07 |
| THTKEQILELVVLEQFVAIYPKEL [L20Y] | 1.46 |
| THTKEQILELVVLEQFVAICPKEL [L20C] | 2.24 |
| THTKEQILELVVLEQFVAITPKEL [L20T] | 2.44 |
| THTKEQILELVVLEQFVAIPPKEL [L20P] | 2.78 |
| THTKEQILELVVLEQFVAIQPKEL [L20Q] | 3.05 |
| THTKEQILELVVLEQFVAIIPKEL [L20I] | 3.78 |
| THTKEQILELVVLEQFVAIDPKEL [L20D] | 2.6 |
| THTKEQILELVVLEQFVAIWPKEL [L20W] | 4.08 |
| THTKEQILELVVLEQFVAIVPKEL [L20V] | 2.19 |
| THTKEQILELVVLEQFVAIGPKEL [L20G] | 1.94 |
| THTKEQILELVVLEQFVAIEPKEL [L20E] | 2.23 |
| THTKEQILELVVLEQFVAILPKSL [E23S] | 2.01 |
| THTKEQILELVVLEQFVAILPKNL [E23N] | 2.97 |
| THTKEQILELVVLEQFVAILPKYL [E23Y] | 3.09 |
| THTKEQILELVVLEQFVAILPKIL [E23I] | 2.56 |
| THTKEQILELVVLEQFVAILPKDL [E23D] | 2.29 |
| THTKEQILELVVLEQFVAILPKKL [E23K] | 1.64 |
| THTKEQILELVVLEQFVAILPKLL [E23L] | 1.68 |
| THTKEQILELVVLEQFVAILPKML [E23M] | 3.72 |

| Variant | protein stability index |
| --- | --- |
| THTKEQILELVVLEQFVAILPKWL [E23W] | 3.51 |
| THTKEQILELVVLEQFVAILPKPL [E23P] | 3.16 |
| THTKEQILELVVLEQFVAILPKVL [E23V] | 2.76 |
| THTKEQILELVVLEQFVAILPKHL [E23H] | 3.33 |
| THTKEQILELVVLEQFVAILPKFL [E23F] | 2.69 |
| THTKEQILELVVLEQFVAILPKCL [E23C] | 3.17 |
| THTKEQILELVVLEQFVAILPKAL [E23A] | 2.59 |
| THTKEQILELVVLEQFVAILPKQL [E23Q] | 2.54 |
| THTKEQILELVVLEQFVAILPKRL [E23R] | 2.77 |
| THTKEQILELVVLEQFVAILPKGL [E23G] | 3.15 |
| THTKEQILELVVLEQFVAILPKTL [E23T] | 1.75 |
| THTKEQILELVVLEQFVAILPWEL [K22W] | 2.08 |
| THTKEQILELVVLEQFVAILPCEL [K22C] | 2.67 |
| THTKEQILELVVLEQFVAILPHEL [K22H] | 2.12 |
| THTKEQILELVVLEQFVAILPREL [K22R] | 2.78 |
| THTKEQILELVVLEQFVAILPPEL [K22P] | 2.18 |
| THTKEQILELVVLEQFVAILPGEL [K22G] | 4.16 |
| THTKEQILELVVLEQFVAILPTEL [K22T] | 2.89 |
| THTKEQILELVVLEQFVAILPQEL [K22Q] | 2.7 |
| THTKEQILELVVLEQFVAILPVEL [K22V] | 2.71 |
| THTKEQILELVVLEQFVAILPDEL [K22D] | 3.16 |
| THTKEQILELVVLEQFVAILPFEL [K22F] | 3.51 |
| THTKEQILELVVLEQFVAILPAEL [K22A] | 2.63 |
| THTKEQILELVVLEQFVAILPSEL [K22S] | 3.45 |

| Variant | protein stability index |
| --- | --- |
| THTKEQILELVVLEQFVAILPNEL [K22N] | 2.39 |
| THTKEQILELVVLEQFVAILPYEL [K22Y] | 2.9 |
| THTKEQILELVVLEQFVAILPMEL [K22M] | 3.15 |
| THTKEQILELVVLEQFVAQLPKEL [I19Q] | 2.01 |
| THTKEQILELVVLEQFVAFLPKEL [I19F] | 2.22 |
| THTKEQILELVVLEQFVAELPKEL [I19E] | 2.37 |
| THTKEQILELVVLEQFVAGLPKEL [I19G] | 1.52 |
| THTKEQILELVVLEQFVADLPKEL [I19D] | 1.77 |
| THTKEQILELVVLEQFVATLPKEL [I19T] | 1.8 |
| THTKEQILELVVLEQFVANLPKEL [I19N] | 1.7 |
| THTKEQILELVVLEQFVAVLPKEL [I19V] | 4.1 |
| THTKEQILELVVLEQFVALLPKEL [I19L] | 2.38 |
| THTKEQILELVVLEQFVASLPKEL [I19S] | 1.95 |
| THTKEQILELVVLEQFVAHLPKEL [I19H] | 2.32 |
| THTKEQILELVVLEQFVAYLPKEL [I19Y] | 2.18 |
| THTKEQILELVVLEQFVAMLPKEL [I19M] | 3.34 |
| THTKEQILELVVLEQFVARLPKEL [I19R] | 2.16 |
| THTKEQILELVVLEQFVAWLPKEL [I19W] | 1.85 |
| THTKEQILELVVLEQFVAKLPKEL [I19K] | 2.14 |
| THTKEQILELVVLEQFVAALPKEL [I19A] | 1.98 |
| THTKEQILELVVLEQFVAPLPKEL [I19P] | 1.73 |
| THTKEQILELVVLEQFVACLPKEL [I19C] | 2.61 |
